Molecular target: TGFβ receptor complex of wild type TβRII and kinase-deficient TβRI (KR) (Homo sapiens (Human)) (UniProt P37173)
Test: anti-Flag IP of [125I]TGFβ affinity-labelled receptors, gamma counting; reference: without Smad2

Flag-tagged hSARA1
fold enhancement of receptor binding by coexpressed Smad2: 2 fold
